This passage reports Initial rate of cleavage of HV62 (nmol · min^-1mg^-1) results from patent US20080032931A1.

The target of this test is HV62, synthetic peptide corresponding to residues 33 to 94 of human VAMP-2 (human) (UniProt P63027).

As to “enterokinase-nicked recombinant single-chain TeNT, wild type L chain (enzyme)”, the Initial rate of cleavage of HV62 (nmol · min^-1mg^-1) worked out at 22.7.
